One experiment concerns the target HLA-B*07:02 (Homo sapiens, UniProt P01889). The experiment is described as follows: MHC binding assay, UV-ligand exchange with β2m ELISA, HLA-B*07:02. The note with it: binding to HLA-B*07:02, UV-ligand exchange. An excerpt:
(§1) Candidate peptides for T cell based therapies according to the present invention were further tested for their MHC binding capacity (affinity). The individual peptide-MHC complexes were produced by UV-ligand exchange, where a UV-sensitive peptide is cleaved upon UV-irradiation, and exchanged with the peptide of interest as analyzed. Only peptide candidates that can effectively bind and stabilize the peptide-receptive MHC molecules prevent dissociation of the MHC complexes. To determine the yield of the exchange reaction, an ELISA was performed based on the detection of the light chain (β2m) of stabilized MHC complexes. The assay was performed as generally described in Rodenko et al. (Rodenko et al., 2006).
(§2) 96 well MAXISorp plates (NUNC) were coated over night with 2 ug/ml streptavidin in PBS at room temperature, washed 4× and blocked for 1 h at 37° C. in 2% BSA containing blocking buffer. Refolded HLA-A*02:01/MLA-001 monomers served as standards, covering the range of 15-500 ng/ml. Peptide-MHC monomers of the UV-exchange reaction were diluted 100-fold in blocking buffer. Samples were incubated for 1 h at 37° C., washed four times, incubated with 2 ug/ml HRP conjugated anti-β2m for 1 h at 37° C., washed again and detected with TMB solution that is stopped with […]. Absorption was measured at 450 nm. Candidate peptides that show a high exchange yield (preferably higher than 50%, most preferred higher than 75%) are generally preferred for a generation and production of antibodies or fragments thereof, and/or T cell receptors or fragments thereof, as they show sufficient avidity to the MHC molecules and prevent dissociation of the MHC complexes.
Background: In an ELISA, binding on a coated surface is turned into a signal by an enzyme label.
With “94 (KPKAAKPKKAAA; listed as Homo sapiens) [compound 94]”, the “Peptide exchange (MHC class I binding score, peptide exchange yield)” value is recorded as ““++” (>20% = ++)”. Still for that read-out and setting: under “78 (RPRGLALVL; listed as Homo sapiens) [compound 78]” stands ““+++” (>50 = +++)”; under “101 (NPRYPNYMF; listed as Homo sapiens) [compound 101]”, ““+++” (>50 = +++)”; under “88 (MPDPHLYHQM; listed as Homo sapiens) [compound 88]”, ““++” (>20% = ++)”. The same measure, in the same setting: with “228 (SPRITFPSL; listed as Homo sapiens) [compound 228]” the entry was ““++++” (>75% = ++++)”. Still for that read-out and setting: with “102 (LPLSMEAKI; listed as Homo sapiens) [compound 102]” the entry was ““++” (>20% = ++)”. Turning to “99 (SPRAINNLVL; listed as Homo sapiens) [compound 99]”, the “Peptide exchange (MHC class I binding score, peptide exchange yield)” value is recorded as ““++++” (>75% = ++++)”.

For “246 (YPGWHSTTI; listed as Homo sapiens) [compound 246]”, the “Peptide exchange (MHC class I binding score, peptide exchange yield)” value was ““++” (>20% = ++)”. The same measure, in the same setting: with “237 (SPWLHAPSL; listed as Homo sapiens) [compound 237]” the entry was ““++” (>20% = ++)”; with “247 (QPSPARAPAEL; listed as Homo sapiens) [compound 247]”, ““++” (>20% = ++)”; with “82 (APFGFLGMQSL; listed as Homo sapiens) [compound 82]”, ““+++” (>50 = +++)”.

“95 (KPKAAKPKTA; listed as Homo sapiens) [compound 95]”: the “Peptide exchange (MHC class I binding score, peptide exchange yield)” value is ““++” (>20% = ++)”. Same read-out and setting: with “255 (YPGSDRIML; listed as Homo sapiens) [compound 255]” the entry was ““++” (>20% = ++)”; with “244 (MPSSDTTVTF; listed as Homo sapiens) [compound 244]”, ““+++” (>50 = +++)”. The same measure, in the same setting: with “235 (SPSLPSRTL; listed as Homo sapiens) [compound 235]” the entry was ““++” (>20% = ++)”; with “239 (APSKTSLIM; listed as Homo sapiens) [compound 239]”, ““++” (>20% = ++)”. On the same count and under the same terms, with “90 (KPKAAKPKA; listed as Homo sapiens) [compound 90]” the entry was ““++” (>20% = ++)”; with “236 (RPSNKAPLL; listed as Homo sapiens) [compound 236]”, ““+++” (>50 = +++)”; with “238 (SPRSWIQVQI; listed as Homo sapiens) [compound 238]”, ““+++” (>50 = +++)”. As to “233 (SPRVYWLGL; listed as Homo sapiens) [compound 233]”, the “Peptide exchange (MHC class I binding score, peptide exchange yield)” value is given as ““+++” (>50 = +++)”. Same read-out and setting: with “252 (RPHIPISKL; listed as Homo sapiens) [compound 252]” the entry was ““++” (>20% = ++)”; with “81 (SESPWLHAPSL; listed as Homo sapiens) [compound 81]”, ““+++” (>50 = +++)”; with “248 (LPYDSKHQI; listed as Homo sapiens) [compound 248]”, ““++” (>20% = ++)”. Still for that read-out and setting: under “225 (LPARFYQAL; listed as Homo sapiens) [compound 225]” stands ““++++” (>75% = ++++)”; under “106 (KAFKWFSAL; listed as Homo sapiens) [compound 106]”, ““++” (>20% = ++)”; under “243 (LPKVQSIQL; listed as Homo sapiens) [compound 243]”, ““++” (>20% = ++)”. Same read-out and setting: under “241 (APAPAEKTPV; listed as Homo sapiens) [compound 241]” stands ““+++” (>50 = +++)”. Take “104 (RPMTPTQIGPSL; listed as Homo sapiens) [compound 104]”: the “Peptide exchange (MHC class I binding score, peptide exchange yield)” value is recorded as ““+++” (>50 = +++)”.

With “83 (IPVSRPIL; listed as Homo sapiens) [compound 83]”, the “Peptide exchange (MHC class I binding score, peptide exchange yield)” value is on record as ““+++” (>50 = +++)”. The same measure, in the same setting: with “84 (SPKLQIAAM; listed as Homo sapiens) [compound 84]” the entry was ““+++” (>50 = +++)”; with “234 (SPKESENAL; listed as Homo sapiens) [compound 234]”, ““++” (>20% = ++)”; with “249 (SPADHRGYASL; listed as Homo sapiens) [compound 249]”, ““++” (>20% = ++)”.

On to “105 (NPLTKLLAI; listed as Homo sapiens) [compound 105]”, for which the “Peptide exchange (MHC class I binding score, peptide exchange yield)” value was ““+++” (>50 = +++)”. Same read-out and setting: with “85 (IPVSHPVL; listed as Homo sapiens) [compound 85]” the entry was ““++” (>20% = ++)”. Still for that read-out and setting: under “240 (SPSLPNITL; listed as Homo sapiens) [compound 240]” stands ““+++” (>50 = +++)”; under “231 (MPLSTIREV; listed as Homo sapiens) [compound 231]”, ““++” (>20% = ++)”; under “103 (IPANTEKASF; listed as Homo sapiens) [compound 103]”, ““++” (>20% = ++)”.

A further experiment addresses HLA-A*03:01 (Homo sapiens, UniProt P04439). The experiment is described as follows: MHC binding assay, UV-ligand exchange with β2m ELISA, HLA-A*03:01. The note with it: peptide exchange yield.
Source text: as §1, §2
Turning to “29 (RIYDEILQSK; listed as Homo sapiens) [compound 29]”, the Peptide exchange result was ““++” (>20% = ++)”. Same read-out and setting: with “214 (ATGAATPKK; listed as Homo sapiens) [compound 214]” the entry was ““+++” (>50 = +++)”; with “220 (SISNLVFTY; listed as Homo sapiens) [compound 220]”, ““++” (>20% = ++)”. Same read-out and setting: under “221 (LLNRHILAH; listed as Homo sapiens) [compound 221]” stands ““+++” (>50 = +++)”. Same read-out and setting: under “44 (KVYDPVSEY; listed as Homo sapiens) [compound 44]” stands ““++” (>20% = ++)”; under “215 (KATGAATPK; listed as Homo sapiens) [compound 215]”, ““++” (>20% = ++)”.

“43 (KLMETSMGF; listed as Homo sapiens) [compound 43]”: the Peptide exchange result was ““++” (>20% = ++)”.

In the case of “42 (SVSSSTHFTR; listed as Homo sapiens) [compound 42]”, the Peptide exchange entry is ““++” (>20% = ++)”. In the case of “35 (ATKSPAKPK; listed as Homo sapiens) [compound 35]”, the Peptide exchange entry is ““+++” (>50 = +++)”. Still for that read-out and setting: under “28 (VILESIFLK; listed as Homo sapiens) [compound 28]” stands ““++” (>20% = ++)”; under “210 (RMYSQLKTLQK; listed as Homo sapiens) [compound 210]”, ““+++” (>50 = +++)”.

The values above are taken from patent US11135246B2, “Peptides and combination of peptides for use in immunotherapy against leukemias and other cancers” (Immatics Biotechnologies GmbH, priority 2017, dated 2021).
